Residue numbers refer to the chain shown, from its start.
T1: IL1B_FL (Mus musculus wild-type pro-IL1β)
T1 chain: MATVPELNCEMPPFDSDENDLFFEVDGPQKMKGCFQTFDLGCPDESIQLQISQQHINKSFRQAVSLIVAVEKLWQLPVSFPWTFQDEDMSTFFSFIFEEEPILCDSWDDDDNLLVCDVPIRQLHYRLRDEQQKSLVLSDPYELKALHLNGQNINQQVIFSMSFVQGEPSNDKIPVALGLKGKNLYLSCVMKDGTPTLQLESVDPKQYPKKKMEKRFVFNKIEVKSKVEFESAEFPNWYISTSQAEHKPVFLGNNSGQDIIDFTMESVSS

B1: CASP1_RV2_D143A (protein)
chain: MSEEDFLTDAIFEDDGIKKAHIEKDFIAFCSSTPDNVSWRHPVRGSLFIESLIKHMKEYAWSCDLEDIFRKVRFSFEQPEFRLQMPTADRVTLTKRFYLFPGHLLVCDVPIRAPSAETFVATEDSKGGHPSSSETKEEQNKEAGTFPGLTGTLKFCPLEKAQKLWKENPSEIYPIMNTTTRTRLALIICNTEFQHLSPRVGAQVDLREMKLLLEDLGYTVKVKENLTALEMVKEVKEFAACPEHKTSDSTFLVFMSHGIQEGICGTTYSNEVSDILKVDTIFQMMNTLKCPSLKDKPKVIIIQACRGEKQGVVLLKD
B2: CASP1_RV2_D108A_D124A_D143A (protein)
chain: B1 chain with D108A, D124A
B3: CASP1_RV2_D108A (protein)
chain: B1 chain with D108A, A143D
B4: CASP1_RV2_D124A (protein)
chain: B1 chain with D124A, A143D
B5: hCASP1_RV2_D108A (protein)
chain: MGNLSLPTTEEFEDDAIKKAHIEKDFIAFCSSTPDNVSWRHPTMGSVFIGRLIEHMQEYACSCDVEEIFRKVRFSFEQPDGRAQMPTTERVTLTRCFYLFPGHAYVHAAPVRDQTSGNYLNMQDSQGVLSSFPAPQAVQDNPAMPTSSGSEGNVKLCSLEEAQRIWKQKSAEIYPIMDKSSRTRLALIICNEEFDSIPRRTGAEVDITGMTMLLQNLGYSVDVKKNLTASDMTTELEAFAHRPEHKTSDSTFLVFMSHGIREGICGKKHSEQVPDILQLNAIFNMLNTKNCPSLKDKPKVIIIQACRGDSPGVVWFKD
B6: hCASP1_RV2_D124A (protein)
chain: B5 chain with A108D, D124A
B7: hCASP1_RV2_D140A (protein)
chain: B5 chain with A108D, D140A

Legend:
[1] = biological target: IL1B_FL (Mus musculus wild-type pro-IL1β) (Mus musculus) (UniProt P10749); test: cell-based or functional assay
[2] = biological target: T1, IL1B_FL (Mus musculus wild-type …)
[3] = biological target: hIL1B_FL (human wild-type pro-IL1β)

| Molecule | ability to process pro-IL1β (data not shown) [2] | ability to process pro-IL1β (data not shown) [3] | further results |
| --- | --- | --- | --- |
| CASP1_RV2 (constitutively active murine caspase-1, p10 and p20 domain reversal, N-terminal p20 remnant removed) (from UniProt P29452 92-296) (enzyme) |  |  | potency against CASP1 WT; IL-1β and LDH activity in supernatants of B16-F10 cells co-transfected with pro-IL1β plasmid [1]: 30 fold |
| B1 | did not significantly affect their ability to process pro-IL1β |  |  |
| B2 | did not significantly affect their ability to process pro-IL1β |  |  |
| B3 | did not significantly affect their ability to process pro-IL1β |  |  |
| B4 | did not significantly affect their ability to process pro-IL1β |  |  |
| B5 |  | did not significantly affect their ability to process pro-IL1β |  |
| B6 |  | did not significantly affect their ability to process pro-IL1β |  |
| B7 |  | did not significantly affect their ability to process pro-IL1β |  |

— patent US20240325526A1
